Our source for the Kd values is publication PMC3458955 (2012).

The experiment has as its target CXCL12α (Homo sapiens, UniProt P48061). The experiment can be described thus: total internal reflection ellipsometry (TIRE) on Ishikawa cell membranes; given as Ka.

One may read the Kd as a measure of binding affinity in units of concentration.

B1: CXCR4 (protein)
chain: MEGISIYTSDNYTEEMGSGDYDSMKEPCFREENANFNKIFLPTIYSIIFLTGIVGNGLVILVMGYQKKLRSMTDKYRLHLSVADLLFVITLPFWAVDAVANWYFGNFLCKAVHVIYTVNLYSSVLILAFISLDRYLAIVHATNSQRPRKLLAEKVVYVGVWIPALLLTIPDFIFANVSEADDRYICDRFYPNDLWVVVFQFQHIMVGLILPGIVILSCYCIIISKLSHSKGHQKRKALKTTVILILAFFACWLPYYIGISIDSFILLEIIKQGCEFENTVHKWISITEALAFFHCCLNPILYAFLGAKFKTSAQHALTSVSRGSSLKILSKGKRGGHSSVSTESESSSFHSS
In turn, B1 displayed a Kd of 714 pM.
